From patent US20250066490A1 (PROFOUNDBIO US, published 2025)

Assays:
[1] = target: T1, cynomolgus CD70 recombinant protein (cynomolgus, UniProt A0A2K5WTU9 39-190); experiment: ELISA, IgG titrated on coated cynomolgus CD70 recombinant protein (2 µg/ml), anti-human Fc-HRP, OD450
T1 construct: also called cyno-antigen; cynomolgus CD70 protein
T1 sequence: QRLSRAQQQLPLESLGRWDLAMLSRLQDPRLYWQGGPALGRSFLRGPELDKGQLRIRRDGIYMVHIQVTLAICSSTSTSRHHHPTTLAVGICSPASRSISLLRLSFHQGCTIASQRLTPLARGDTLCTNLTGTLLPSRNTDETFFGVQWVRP
Procedure: (§1) The binding specificity of the CD70 antibodies was tested by ELISA according to a standard protocol. Briefly, 96-well micro-plates were coated with 2 μg/ml of human or cynomolgus CD70 recombinant protein in PBS at 100 μl per well and incubated overnight at 4° C. The plates were washed twice with TBS+0.5% Tween20. 200 μL of blocking buffer (2% BSA in PBS) was added to each well, and the plates were incubated at 37° C. for 2 hours. The plates were washed using the wash buffer mentioned above. Serially diluted antibodies were added to the ELISA plates using 100 μl per well, and the plates were incubated for 1 hour at room temperature. Then plates were washed 3 times. HRP conjugated anti-human Fc antibody solution (Sigma, I18885-2ML, diluted with blocking buffer) was added to the plates using 100 μl per well. The plates were incubated at room temperature for 1 hour and then washed 3 times. Then the TMB solution was added to plates using 100 μl per well and the plates were placed at RT for 5-15 mins. Then the stop solution (2M H2SO4) was added using 50 μl per well. The absorbance was measured at A450 and A630.

[2] = target: T2, human CD70 expressed on the cell surface of tumor cell lines (human, UniProt P32970 1-193); experiment: flow cytometry on U251 cells, PE anti-human Fc, MFI; same fit as Table 6, which prints it in nM
T2 construct: whole, on cells
T2 sequence (looked up): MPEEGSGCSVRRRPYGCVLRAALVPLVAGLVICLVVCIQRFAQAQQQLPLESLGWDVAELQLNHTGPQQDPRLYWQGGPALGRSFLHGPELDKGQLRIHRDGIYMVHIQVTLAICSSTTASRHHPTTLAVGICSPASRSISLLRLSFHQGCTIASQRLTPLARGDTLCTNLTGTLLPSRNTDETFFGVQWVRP
Procedure: (§2) The lead antibodies were tested for binding to renal carcinoma cells and glioblastoma cells expressing CD70 on the cell surface by flow cytometry. […] U251 cells were cultured with MEM medium containing of 10% FBS and 1% NEAA+1 mM sodium pyruvate. DBTRG-05MG cells were cultured with DMEM medium (Gibco, Cat #C11995500BT) containing of 10% FBS. Each of the lead antibodies and the controls were incubated for 30 mins with the different cell lines (3×10⁵ cells per well) in 0.2 ml FACS buffer (1×PBS with 0.1% BSA) at 4° C. Then, the cells were pelleted, washed, and incubated at 4° C. for 30 mins with 100 μl of 1:200 diluted PE-conjugated anti human Fc (Abcam, Ab98596) in FACS buffer. The cells were pelleted again, washed with PBS, resuspended in FACS buffer and analyzed by flow cytometer (Beckman, CytoFLEX).
(§3) Antibodies 2H8 and 2D2 had slightly higher binding ability to the cell lines than that of antibody 69A7.

[3] = target: T3, cyno CD70 recombinant ECD protein (cyno); experiment: BLI, global 1:1 fit over 200-3.13 nM; cell repeated in each concentration row
T3 construct: extracellular domain; The sentence on the purchase names human, rat and mouse ECD-His only

[4] = target: T4, human CD70 extra-cellular domain (ECD) linked to His tag (human, UniProt P32970 39-193); experiment: as above
T4 construct: extracellular domain; also called Hu CD70; HU CD70; not shown: His tag
T4 sequence (looked up): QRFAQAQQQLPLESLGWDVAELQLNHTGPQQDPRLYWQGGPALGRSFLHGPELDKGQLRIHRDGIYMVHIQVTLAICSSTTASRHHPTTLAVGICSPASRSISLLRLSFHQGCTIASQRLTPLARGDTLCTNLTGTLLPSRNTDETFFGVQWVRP

[5] = target: T2, human CD70 expressed on the cell …; experiment: flow cytometry on Caki-1 cells, PE anti-human Fc, MFI; same fit as Table 6, which prints it in nM
Procedure: as §2, §3

[6] = target: T2, human CD70 expressed on the cell …; experiment: flow cytometry on Caki-1 cells
Procedure: as §2, §3

[7] = target: T4, human CD70 extra-cellular domain (ECD) …; experiment: BLI (Octet RED), antibody on anti-human Fc tips, CD70 ECD-His at 100 nM
Procedure: Recombinant proteins consisting of human, rat, or mouse CD70 extra-cellular domain (ECD) linked to His tag was purchased (from ACRO systems). 69A7 and 2E7 (20 nM) were immobilized on anti-human IgG Fc biosensor tips (ForteBio). Binding assays using one concentration (100 nM) of recombinant protein in solution were performed using Octet RED (ForteBio). Association time was set at 180s and dissociation time was set at 300s. Binding affinity was calculated using ForteBio Data Acquisition 6.3 software. Affinity was derived by fitting the kinetic data to a 1:1 Langmuir binding model utilizing global fitting algorithms. […] 2E7 had no cross-reactivity to rat or mouse CD70 (Table 10).

[8] = target: T5, human CD70 recombinant protein (human, UniProt P32970 39-193, limits assumed); experiment: ELISA, coated human CD70, IgG titrated
T5 construct: May be the same reagent as ACRO CDL-H5246; also called CD70 protein
T5 sequence (looked up): T4 sequence (looked up)
Procedure: as §1

[9] = target: T2, human CD70 expressed on the cell …; experiment: flow cytometry on Raji cells
Procedure: Binding activity of 2E7 or the isotype control with a target cell line (Raji) or a cell line (MCF-7) that has negligible level of CD70 expression were evaluated by flow cytometry (Beckman, Cytoflex). 3×10⁵ cells per well were seeded on a 96-well V-bottomed plate and incubated with 100 μl of 2E7 in serial dilutions. After 30 min incubation at 4° C., cells were washed twice with PBS, stained with 100 μl of 1:200 diluted PE-conjugated anti-human Fc in FACS buffer (1×PBS containing 1% BSA), then incubated at 4° C. for 30 min. Cells were finally washed two times with PBS and analyzed by flow cytometric analysis.

B1: 2E7, full IgG (antibody, V domains shown)
VH: QVQLQESGPGLVKPSETLSLTCTVSGGSVSSDYYYWSWIRQPPGKGLEWLGYIYYSGSTNYNPSLKSRVTISVDTSKNQFSLKLRSVTTADTAVYYCARGDGDFLGVCFDYWGQGTLVTVSS
VL: EIVLTQSPATLSLSPGERATLSCRASQSVSSYLAWYQQKPGQAPRLLIFDASNRATGIPARFSGSGSGTDFTLTISSLEPEDFAVYYCQQRSNWPLTFGGGTKVEIK
EC50 [1]: 0.00401 µg/mL
EC50 [2]: 0.604 µg/mL
Kd [3]: 0.39 nM
koff [3]: 0.000241 s⁻¹
kon [3]: 618000 M⁻¹ s⁻¹
Kd [4]: 0.807 nM
koff [4]: 0.000254 s⁻¹
kon [4]: 314000 M⁻¹ s⁻¹
EC50 [5]: 0.421 µg/mL
EC50 [6]: 2.81 nM
Kd [7]: 0.979 nM
koff [7]: 0.000357 s⁻¹
kon [7]: 365000 M⁻¹ s⁻¹
EC50 ratio against antibody 69A7 [8]: 1.5 times
EC50 [9]: ~19 nM
